The values below come from publication PMC8290868 (Cell Discovery, 2021).

The target of the assay is T1, SARS-CoV-2 S protein extracellular domain (S-ECD), prefusion-stabilised trimer (SARS-CoV-2, Wuhan-Hu-1 (wild type), UniProt P0DTC2, proline substitution at residue 986 | proline substitution at residue 987 | …).
T1 construct: also called trimeric SARS-CoV-2 S protein; S trimer
The assay is described as follows: cryo-EM structure. The note with it: both partners purified.

B1: 7B8 Fab fragment (Fab, V domains shown)
VH: QVQLVESGGGVVQPGRSLRLSCAASGFIFSSYGMHWVRQAPGKGLEWVAVIWFDGSNKYYADSVKGRFTISRDNSKNTLYLQMNSLRAEDTAVYYCARETVSYGMDVWGQGTTVTVSS
VL: NIQMTQSPSAMSASVGDRVTITCRARQGISNYLAWFQQKPGKVPKHLIYAASSLLSGVPSRFSGSGSETEFTLTISSLQPEDFATYYCLQHNSYPYTFGQGTKLEIK
notes: also called Ab4
In the case of B1, the binding result was “binds”.
